Experimental data published in ChEMBL document CHEMBL1127724, “Design and synthesis of 6-fluoropurine acyclonucleosides : potential prodrugs of acyclovir and ganciclovir” (Bioorg Med Chem Lett, 1994).

Tests used:
[1] = substrate: Nc1ncnc2c1ncn2[C@@H]1O[C@H](CO)[C@@H](O)[C@H]1O; experiment: Michaelis-Menten constant for Calf intestinal mucosa adenosine deaminase was determined
[2] = substrate: Nc1ncnc2c1ncn2[C@@H]1O[C@H](CO)[C@@H](O)[C@H]1O; experiment: Vmax for Calf intestinal mucosa adenosine deaminase was determined

B1: Adenosine deaminase (Bos taurus), P56658 (protein)
chain: MAQTPAFNKPKVELHVHLDGAIKPETILYYGRKRGIALPADTPEELQNIIGMDKPLSLPEFLAKFDYYMPAIAGCREAVKRIAYEFVEMKAKDGVVYVEVRYSPHLLANSKVEPIPWNQAEGDLTPDEVVSLVNQGLQEGERDFGVKVRSILCCMRHQPSWSSEVVELCKKYREQTVVAIDLAGDETIEGSSLFPGHVKAYAEAVKSGVHRTVHAGEVGSANVVKEAVDTLKTERLGHGYHTLEDATLYNRLRQENMHFEVCPWSSYLTGAWKPDTEHPVVRFKNDQVNYSLNTDDPLIFKSTLDTDYQMTKNEMGFTEEEFKRLNINAAKSSFLPEDEKKELLDLLYKAYGMPSPASAEQCL
[1]
  Km: 50.5 µM
[2]
  Vmax (uM min-1 unit-1): 0.76
